Molecular target: human ILT4-HIS
Assay: BLI (Octet)

Row | Binder | Kd [nM]
1 | 9H9-7A3 LH (bispecific antibody) heavy: not shown light: DIQMTQSPSTLSASVGDRVTITCRASQSISGWLAWYQQKPGKAPKLLIYKASSLESGVPSRFSGSGSGTEFTLTISSLQPDDFATYYCQQYYGSSRTFGQGTNVEIKRTVAAPSVFIFPPSDEQLKSGTASVVCLLNNFYPREAKVQWKVDNALQSGNSQESVTEQDSKDSTYSLSSTLTLSKADYEKHKVYACEVTHQGLSSPVTKSFNRGEC | 0.282
2 | 9H9-7A3 HL (bispecific antibody) heavy: not shown light: DIQMTQSPSTLSASVGDRVTITCRASQSISGWLAWYQQKPGKAPKLLIYKASSLESGVPSRFSGSGSGTEFTLTISSLQPDDFATYYCQQYYGSSRTFGQGTNVEIKRTVAAPSVFIFPPSDEQLKSGTASVVCLLNNFYPREAKVQWKVDNALQSGNSQESVTEQDSKDSTYSLSSTLTLSKADYEKHKVYACEVTHQGLSSPVTKSFNRGEC | 0.308
3 | 9H9-7B1 LH (bispecific antibody) heavy: not shown light: DIQMTQSPSTLSASVGDRVTITCRASQSISGWLAWYQQKPGKAPKLLIYKASSLESGVPSRFSGSGSGTEFTLTISSLQPDDFATYYCQQYYGSSRTFGQGTNVEIKRTVAAPSVFIFPPSDEQLKSGTASVVCLLNNFYPREAKVQWKVDNALQSGNSQESVTEQDSKDSTYSLSSTLTLSKADYEKHKVYACEVTHQGLSSPVTKSFNRGEC | 0.056
4 | 9H9-7B1 HL (bispecific antibody) heavy: not shown light: DIQMTQSPSTLSASVGDRVTITCRASQSISGWLAWYQQKPGKAPKLLIYKASSLESGVPSRFSGSGSGTEFTLTISSLQPDDFATYYCQQYYGSSRTFGQGTNVEIKRTVAAPSVFIFPPSDEQLKSGTASVVCLLNNFYPREAKVQWKVDNALQSGNSQESVTEQDSKDSTYSLSSTLTLSKADYEKHKVYACEVTHQGLSSPVTKSFNRGEC | 0.139
